Target: T1, HLA-A*03:01 (human)
T1 construct: MHC class I monomer first loaded with a UV-sensitive peptide that is cleaved by UV irradiation and exchanged for the test peptide; captured on streptavidin plates; also called peptide-receptive MHC molecules
Assay: UV-ligand exchange, anti-b2m ELISA; peptide exchange yield grade (>10% +, >20% ++, >50% +++, >75% ++++)
How it was run: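 HLA-A*03:01 complexes were formed by UV-induced exchange of a photocleavable peptide for the test peptide. Exchange yield was measured by ELISA: streptavidin capture of 100-fold diluted monomers, HRP-anti-β2m detection, TMB read at 450 nm, quantified against HLA-A*02:01 monomer standards (15–500 ng/ml) and graded by % yield.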

| Binder | peptide exchange yield [%] |
| --- | --- |
| HLFLPFSYK | > 75 |
| KRIPFRPLAK | 20 to 50 |
| KLADSVMAGK | > 75 |
| TTNARILAR | 50 to 75 |
| RTYTCQVTY | > 75 |
| RVRALGSQY | > 75 |
| GTHVWVGLYK | > 75 |
| RLASVGLDAK | > 75 |
| PLPRPGAVLK | 20 to 50 |
| SVEGLSRRLK | 50 to 75 |
| GMTLLCEALK | 20 to 50 |
| RLLQHTPSAR | > 75 |
| RAVSVNPGK | 10 to 20 |
| CLANYTVNK | > 75 |
| IMPTFDLTK | 10 to 20 |
| KARDLRTPK | 50 to 75 |
| VSVAGSILAK | 20 to 50 |
| VIYVICRHK | 50 to 75 |
| QLYSPPSPSYR | > 75 |
| RTALLWGLKK | > 75 |
| RVSGSGGGGAGK | 50 to 75 |
| HMDEFKRTQK | 50 to 75 |
| IMKRQVKCITK | 10 to 20 |
| FLGLAFHPK | 20 to 50 |

Reference: patent US20200000897A1 (published 2020)
